Reference: US20240287154A1, “MC3R AGONIST PEPTIDES” (The Regents of the University of Michigan, priority 2021, published 2024)
Non-standard residues stand in square brackets, D forms with d. d(αMeW) = C[C@@](N)(Cc1c[nH]c2ccccc12)C(=O)O; Phe(4-I) = N[C@@H](Cc1ccc(I)cc1)C(=O)O; 2Nal = N[C@@H](Cc1ccc2ccccc2c1)C(=O)O; d2Nal = N[C@H](Cc1ccc2ccccc2c1)C(=O)O; NMeH = CN[C@@H](Cc1c[nH]cn1)C(=O)O; dTic = O=C(O)[C@H]1Cc2ccccc2CN1; NMeK = CN[C@@H](CCCCN)C(=O)O; dNle = CCCC[C@@H](N)C(=O)O; NMeA = CN[C@@H](C)C(=O)O; Nle = CCCC[C@H](N)C(=O)O; dAbu = CC[C@@H](N)C(=O)O; dNMeA = CN[C@H](C)C(=O)O; Aib = CC(C)(N)C(=O)O

Target: human MC3R (human, UniProt P41968 1-323)
Experiment: cell-based or functional assay

human MC3R, sequence (P41968 whole entry): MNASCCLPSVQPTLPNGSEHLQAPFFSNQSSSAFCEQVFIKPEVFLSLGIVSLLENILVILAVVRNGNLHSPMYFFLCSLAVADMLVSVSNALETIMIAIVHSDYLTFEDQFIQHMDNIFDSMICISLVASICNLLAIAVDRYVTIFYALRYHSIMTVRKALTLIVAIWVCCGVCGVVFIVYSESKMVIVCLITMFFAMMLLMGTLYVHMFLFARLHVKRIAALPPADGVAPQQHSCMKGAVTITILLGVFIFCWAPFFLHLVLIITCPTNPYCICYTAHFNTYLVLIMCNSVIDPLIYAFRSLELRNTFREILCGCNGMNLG

Row | MC3R cAMP (EC50) [nM] | MC3R selectivity (relative to MC4R) | Binder
1 | 200 | 1880 | Ac-[Nle][dA][NMeH]FR[dW]DRFG-OH (SMILES CCCC[C@H](NC(C)=O)C(=O)N[C@H](C)C(=O)N(C)[C@@H](Cc1c[nH]cn1)C(=O)N[C@@H](Cc1ccccc1)C(=O)N[C@@H](CCCNC(=N)N)C(=O)N[C@H](Cc1c[nH]c2ccccc12)C(=O)N[C@@H](CC(=O)O)C(=O)N[C@@H](CCCNC(=N)N)C(=O)N[C@@H](Cc1ccccc1)C(=O)NCC(=O)O) [CTX-1186]
2 | 124 | 214 | Ac-[Nle][dA]H[Phe(4-I)]R[dF]DRFG-OH (SMILES CCCC[C@H](NC(C)=O)C(=O)N[C@H](C)C(=O)N[C@@H](Cc1c[nH]cn1)C(=O)N[C@@H](Cc1ccc(I)cc1)C(=O)N[C@@H](CCCNC(=N)N)C(=O)N[C@H](Cc1ccccc1)C(=O)N[C@@H](CC(=O)O)C(=O)N[C@@H](CCCNC(=N)N)C(=O)N[C@@H](Cc1ccccc1)C(=O)NCC(=O)O) [CTX-1503]
3 |  | 1 | Ac-[Nle][dA]H[Phe(4-I)]R[dTic]DRFG-OH [CTX-1504]
4 | 181 | 23 | Ac-[Nle][dA]HFR[d(αMeW)]DRFG-OH (SMILES CCCC[C@H](NC(C)=O)C(=O)N[C@H](C)C(=O)N[C@@H](Cc1c[nH]cn1)C(=O)N[C@@H](Cc1ccccc1)C(=O)N[C@@H](CCCNC(=N)N)C(=O)N[C@](C)(Cc1c[nH]c2ccccc12)C(=O)N[C@@H](CC(=O)O)C(=O)N[C@@H](CCCNC(=N)N)C(=O)N[C@@H](Cc1ccccc1)C(=O)NCC(=O)O) [CTX-1510]
5 | 13.5 | 250 | Ac-[Nle][dA]R[Phe(4-I)]R[dW]DRFG-OH (SMILES CCCC[C@H](NC(C)=O)C(=O)N[C@H](C)C(=O)N[C@@H](CCCNC(=N)N)C(=O)N[C@@H](Cc1ccc(I)cc1)C(=O)N[C@@H](CCCNC(=N)N)C(=O)N[C@H](Cc1c[nH]c2ccccc12)C(=O)N[C@@H](CC(=O)O)C(=O)N[C@@H](CCCNC(=N)N)C(=O)N[C@@H](Cc1ccccc1)C(=O)NCC(=O)O) [CTX-1197]
6 | 184 | 51 | Ac-YVE[Aib]H[Phe(4-I)]R[dW]DRFG-OH (SMILES CC(=O)N[C@@H](Cc1ccc(O)cc1)C(=O)N[C@H](C(=O)N[C@@H](CCC(=O)O)C(=O)NC(C)(C)C(=O)N[C@@H](Cc1c[nH]cn1)C(=O)N[C@@H](Cc1ccc(I)cc1)C(=O)N[C@@H](CCCNC(=N)N)C(=O)N[C@H](Cc1c[nH]c2ccccc12)C(=O)N[C@@H](CC(=O)O)C(=O)N[C@@H](CCCNC(=N)N)C(=O)N[C@@H](Cc1ccccc1)C(=O)NCC(=O)O)C(C)C) [CTX-1195]
7 | 71.6 | 515 | Ac-[Nle][dNMeA]HFR[dW]DRFG-OH (SMILES CCCC[C@H](NC(C)=O)C(=O)N(C)[C@H](C)C(=O)N[C@@H](Cc1c[nH]cn1)C(=O)N[C@@H](Cc1ccccc1)C(=O)N[C@@H](CCCNC(=N)N)C(=O)N[C@H](Cc1c[nH]c2ccccc12)C(=O)N[C@@H](CC(=O)O)C(=O)N[C@@H](CCCNC(=N)N)C(=O)N[C@@H](Cc1ccccc1)C(=O)NCC(=O)O) [CTX-1183]
8 | 3540 | 1 | Ac-[Nle][dA][NMeK]FR[dW]DRFG-OH (SMILES CCCC[C@H](NC(C)=O)C(=O)N[C@H](C)C(=O)N(C)[C@@H](CCCCN)C(=O)N[C@@H](Cc1ccccc1)C(=O)N[C@@H](CCCNC(=N)N)C(=O)N[C@H](Cc1c[nH]c2ccccc12)C(=O)N[C@@H](CC(=O)O)C(=O)N[C@@H](CCCNC(=N)N)C(=O)N[C@@H](Cc1ccccc1)C(=O)NCC(=O)O) [CTX-1189]
9 | 14.6 | 1410 | Ac-[Nle][dNle]HFR[dW]DRFG-OH (SMILES CCCC[C@H](NC(C)=O)C(=O)N[C@H](CCCC)C(=O)N[C@@H](Cc1c[nH]cn1)C(=O)N[C@@H](Cc1ccccc1)C(=O)N[C@@H](CCCNC(=N)N)C(=O)N[C@H](Cc1c[nH]c2ccccc12)C(=O)N[C@@H](CC(=O)O)C(=O)N[C@@H](CCCNC(=N)N)C(=O)N[C@@H](Cc1ccccc1)C(=O)NCC(=O)O) [CTX-1182]
10 | 34.3 | 49 | Ac-YVE[dAbu]H[Phe(4-I)]R[dW]DRFG-OH (SMILES CC[C@@H](NC(=O)[C@H](CCC(=O)O)NC(=O)[C@@H](NC(=O)[C@H](Cc1ccc(O)cc1)NC(C)=O)C(C)C)C(=O)N[C@@H](Cc1c[nH]cn1)C(=O)N[C@@H](Cc1ccc(I)cc1)C(=O)N[C@@H](CCCNC(=N)N)C(=O)N[C@H](Cc1c[nH]c2ccccc12)C(=O)N[C@@H](CC(=O)O)C(=O)N[C@@H](CCCNC(=N)N)C(=O)N[C@@H](Cc1ccccc1)C(=O)NCC(=O)O) [CTX-1194]
11 | 3920 |  | Ac-[Nle][dA][NMeA]FR[dW]DRFG-OH (SMILES CCCC[C@H](NC(C)=O)C(=O)N[C@H](C)C(=O)N(C)[C@@H](C)C(=O)N[C@@H](Cc1ccccc1)C(=O)N[C@@H](CCCNC(=N)N)C(=O)N[C@H](Cc1c[nH]c2ccccc12)C(=O)N[C@@H](CC(=O)O)C(=O)N[C@@H](CCCNC(=N)N)C(=O)N[C@@H](Cc1ccccc1)C(=O)NCC(=O)O) [CTX-1190]
12 | 13.1 | 804 | Ac-[Nle][dA]H[2Nal]R[dW]DRFG-OH (SMILES CCCC[C@H](NC(C)=O)C(=O)N[C@H](C)C(=O)N[C@@H](Cc1c[nH]cn1)C(=O)N[C@@H](Cc1ccc2ccccc2c1)C(=O)N[C@@H](CCCNC(=N)N)C(=O)N[C@H](Cc1c[nH]c2ccccc12)C(=O)N[C@@H](CC(=O)O)C(=O)N[C@@H](CCCNC(=N)N)C(=O)N[C@@H](Cc1ccccc1)C(=O)NCC(=O)O) [CTX-1512]
13 | 2.7 | 2310 | Ac-[Nle]GHFR[dW]DRFG-OH (SMILES CCCC[C@H](NC(C)=O)C(=O)NCC(=O)N[C@@H](Cc1c[nH]cn1)C(=O)N[C@@H](Cc1ccccc1)C(=O)N[C@@H](CCCNC(=N)N)C(=O)N[C@H](Cc1c[nH]c2ccccc12)C(=O)N[C@@H](CC(=O)O)C(=O)N[C@@H](CCCNC(=N)N)C(=O)N[C@@H](Cc1ccccc1)C(=O)NCC(=O)O) [CTX-1185]
14 | 6.7 | 184 | Ac-[Nle][dA]H[Phe(4-I)]R[d2Nal]DRFG-OH (SMILES CCCC[C@H](NC(C)=O)C(=O)N[C@H](C)C(=O)N[C@@H](Cc1c[nH]cn1)C(=O)N[C@@H](Cc1ccc(I)cc1)C(=O)N[C@@H](CCCNC(=N)N)C(=O)N[C@H](Cc1ccc2ccccc2c1)C(=O)N[C@@H](CC(=O)O)C(=O)N[C@@H](CCCNC(=N)N)C(=O)N[C@@H](Cc1ccccc1)C(=O)NCC(=O)O) [CTX-1502]
15 | 2800 | 0.01 | Ac-[Nle][dA]H[Phe(4-I)][dR]WDRFG-OH (SMILES CCCC[C@H](NC(C)=O)C(=O)N[C@H](C)C(=O)N[C@@H](Cc1c[nH]cn1)C(=O)N[C@@H](Cc1ccc(I)cc1)C(=O)N[C@H](CCCNC(=N)N)C(=O)N[C@@H](Cc1c[nH]c2ccccc12)C(=O)N[C@@H](CC(=O)O)C(=O)N[C@@H](CCCNC(=N)N)C(=O)N[C@@H](Cc1ccccc1)C(=O)NCC(=O)O) [CTX-1501]
16 | 1.2 | 7.5 | H-YV[Nle]AHFR[dW]D-NH2 (SMILES CCCC[C@H](NC(=O)[C@@H](NC(=O)[C@@H](N)Cc1ccc(O)cc1)C(C)C)C(=O)N[C@@H](C)C(=O)N[C@@H](Cc1c[nH]cn1)C(=O)N[C@@H](Cc1ccccc1)C(=O)N[C@@H](CCCNC(=N)N)C(=O)N[C@H](Cc1c[nH]c2ccccc12)C(=O)N[C@@H](CC(=O)O)C(N)=O) [CTX-1129]
17 | 607 | 28 | Ac-[Nle][dP]HFR[dW]DRFG-OH (SMILES CCCC[C@H](NC(C)=O)C(=O)N1CCC[C@@H]1C(=O)N[C@@H](Cc1c[nH]cn1)C(=O)N[C@@H](Cc1ccccc1)C(=O)N[C@@H](CCCNC(=N)N)C(=O)N[C@H](Cc1c[nH]c2ccccc12)C(=O)N[C@@H](CC(=O)O)C(=O)N[C@@H](CCCNC(=N)N)C(=O)N[C@@H](Cc1ccccc1)C(=O)NCC(=O)O) [CTX-1184]
18 |  | 1 | Ac-[Nle][dA]P[Phe(4-I)]R[dF]DRFG-OH (SMILES CCCC[C@H](NC(C)=O)C(=O)N[C@H](C)C(=O)N1CCC[C@H]1C(=O)N[C@@H](Cc1ccc(I)cc1)C(=O)N[C@@H](CCCNC(=N)N)C(=O)N[C@H](Cc1ccccc1)C(=O)N[C@@H](CC(=O)O)C(=O)N[C@@H](CCCNC(=N)N)C(=O)N[C@@H](Cc1ccccc1)C(=O)NCC(=O)O) [CTX-1506]
19 | 3.9 | 470 | Ac-[Nle][dAbu]H[Phe(4-I)]R[dW]DRFG-OH (SMILES CCCC[C@H](NC(C)=O)C(=O)N[C@H](CC)C(=O)N[C@@H](Cc1c[nH]cn1)C(=O)N[C@@H](Cc1ccc(I)cc1)C(=O)N[C@@H](CCCNC(=N)N)C(=O)N[C@H](Cc1c[nH]c2ccccc12)C(=O)N[C@@H](CC(=O)O)C(=O)N[C@@H](CCCNC(=N)N)C(=O)N[C@@H](Cc1ccccc1)C(=O)NCC(=O)O) [CTX-1191]
